Biological target: highest binding amyloid (in vitro)
Assay: calculated from in vitro binding of the antibody to amyloid; method not described

B1: CAEL-101 antibody having a heavy chain variable domain (VH) as set forth in SEQ ID NO:1 and a light chain variable domain (VL) as set forth in SEQ ID NO:2 (antibody, human IgG1, V domains shown)
VH: QVQLKESGPGLVAPSQSLSITCTVSGFSLSSYGVSWVRQPPGKGLEWLGVIWGDGSTNYHPNLMSRLSISKDISKSQVLFKLNSLQTDDTATYYCVTLDYWGQGTSVTVSS
VL: DVVMTQTPLSLPVSLGDQASISCRSSQSLVHRNGNTYLHWYLQKPGQSPKLLIYKVSNRFSGVPDRFSGSGSGTDFTLKISRVEAEDLGLYFCFQTTYVPNTFGGGTKLEIK
For B1, which Michaelis-Menton EC 90 (calculated) is on record?
The Michaelis-Menton EC 90 (calculated) was 36.5 µg/mL.

Reference: patent US20240392028A1
